For experiment [1], the target named is T1, human CD11d/CD18 expressed on JY cells (human, UniProt Q13349 18-1161; P05107 23-769).
T1 construct: whole, on cells
In words: FACS on JY cells expressing human CD11d/CD18; non-linear regression, one-site binding model. On the procedure:
(§1) Binding affinity of the exemplified CD11d antibodies of Table 2 were determined, for both human and rat CD11d, by Fluorescence Activated Cell Sorting (FACS) analysis. JY cells expressing human CD11d/CD18 or JY cells transfected with full-length rat CD11d are suspended in FACS buffer with goat IgG (1 mg/ml). The cell solution is added to wells of 96-well round-bottom plates at a density of 4.0×10⁴ cells in 50 μL solution. Each of the exemplified CD11d antibodies of Table 2 (25 μL) or isotype control antibody (25 μL) is added to a respective well at 1:3 dilutions at final concentrations ranging between 4.6 ng/mL to 10 μg/mL. The plates are incubated on ice for 30 minutes, after which 200 μL of FACS buffer is added, plates are centrifuged at 2000 rpm for 3 minutes, and the liquid is discarded. Cells are re-suspended with 50 μL of a phycoerythrin-conjugated antibody (Jackson ImmunoResearch p/n. 709-116-149) at a 1:150 dilution and incubated on ice for 20 minutes. FACS buffer is added (200 μL) to each well and plates are spun at 2000 rpm for 3 minutes. The liquid is discarded, cells are washed with 200 μL FACS buffer, re-suspended in 120 μL of 1% paraformaldehyde in PBS, and transferred to 96-well flat-bottom plates.
(§2) Stained cells are analyzed by flow cytometry with the gate set on the isotype control antibody. The specific percent gated is calculated as [% gated (test antibody)−% gated (isotype control antibody)]. Kd determinations were made based on a non-linear regression, one-site binding model. Following procedures essentially as described above, binding affinities of the exemplified CD11d antibodies of Table 2 to human and rat CD11d were obtained.

Experiment [2] addresses T2, full-length rat CD11d on transfected JY cells (rat, UniProt Q9QYE7 20-1161).
T2 construct: whole, on cells
T2 sequence (looked up): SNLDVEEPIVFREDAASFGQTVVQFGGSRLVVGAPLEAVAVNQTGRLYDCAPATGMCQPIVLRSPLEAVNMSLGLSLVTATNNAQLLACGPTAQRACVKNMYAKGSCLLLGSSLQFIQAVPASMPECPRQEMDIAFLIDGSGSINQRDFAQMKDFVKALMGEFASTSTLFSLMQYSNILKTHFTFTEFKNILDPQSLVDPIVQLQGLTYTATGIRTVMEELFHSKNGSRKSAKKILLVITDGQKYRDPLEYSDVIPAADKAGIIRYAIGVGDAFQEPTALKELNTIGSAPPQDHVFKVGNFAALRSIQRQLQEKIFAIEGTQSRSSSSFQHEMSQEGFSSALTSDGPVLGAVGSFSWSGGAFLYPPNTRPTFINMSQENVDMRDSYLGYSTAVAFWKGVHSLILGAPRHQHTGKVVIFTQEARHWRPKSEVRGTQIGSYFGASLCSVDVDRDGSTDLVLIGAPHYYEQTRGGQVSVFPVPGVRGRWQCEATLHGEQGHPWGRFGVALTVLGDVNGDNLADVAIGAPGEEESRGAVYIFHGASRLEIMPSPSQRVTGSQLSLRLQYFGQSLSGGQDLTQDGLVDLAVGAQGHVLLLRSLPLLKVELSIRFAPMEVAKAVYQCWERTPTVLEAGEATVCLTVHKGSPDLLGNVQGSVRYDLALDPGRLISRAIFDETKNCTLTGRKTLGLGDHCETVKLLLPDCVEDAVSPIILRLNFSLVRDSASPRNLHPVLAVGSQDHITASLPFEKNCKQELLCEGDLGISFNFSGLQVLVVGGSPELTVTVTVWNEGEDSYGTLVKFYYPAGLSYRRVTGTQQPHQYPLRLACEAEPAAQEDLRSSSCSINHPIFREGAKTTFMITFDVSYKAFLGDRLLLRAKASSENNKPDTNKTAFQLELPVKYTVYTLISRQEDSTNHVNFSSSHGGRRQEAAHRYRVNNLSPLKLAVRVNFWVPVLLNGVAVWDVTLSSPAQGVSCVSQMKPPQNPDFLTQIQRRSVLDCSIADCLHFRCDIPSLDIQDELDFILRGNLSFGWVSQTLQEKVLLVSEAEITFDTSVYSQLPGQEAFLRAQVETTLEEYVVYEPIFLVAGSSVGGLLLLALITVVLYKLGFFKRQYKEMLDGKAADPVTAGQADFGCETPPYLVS
As to the kind of experiment: FACS on JY cells transfected with full-length rat CD11d; non-linear regression, one-site binding model. On the procedure:
as §1, §2

T1 sequence (Q13349 18-1161, chain 1 of 2): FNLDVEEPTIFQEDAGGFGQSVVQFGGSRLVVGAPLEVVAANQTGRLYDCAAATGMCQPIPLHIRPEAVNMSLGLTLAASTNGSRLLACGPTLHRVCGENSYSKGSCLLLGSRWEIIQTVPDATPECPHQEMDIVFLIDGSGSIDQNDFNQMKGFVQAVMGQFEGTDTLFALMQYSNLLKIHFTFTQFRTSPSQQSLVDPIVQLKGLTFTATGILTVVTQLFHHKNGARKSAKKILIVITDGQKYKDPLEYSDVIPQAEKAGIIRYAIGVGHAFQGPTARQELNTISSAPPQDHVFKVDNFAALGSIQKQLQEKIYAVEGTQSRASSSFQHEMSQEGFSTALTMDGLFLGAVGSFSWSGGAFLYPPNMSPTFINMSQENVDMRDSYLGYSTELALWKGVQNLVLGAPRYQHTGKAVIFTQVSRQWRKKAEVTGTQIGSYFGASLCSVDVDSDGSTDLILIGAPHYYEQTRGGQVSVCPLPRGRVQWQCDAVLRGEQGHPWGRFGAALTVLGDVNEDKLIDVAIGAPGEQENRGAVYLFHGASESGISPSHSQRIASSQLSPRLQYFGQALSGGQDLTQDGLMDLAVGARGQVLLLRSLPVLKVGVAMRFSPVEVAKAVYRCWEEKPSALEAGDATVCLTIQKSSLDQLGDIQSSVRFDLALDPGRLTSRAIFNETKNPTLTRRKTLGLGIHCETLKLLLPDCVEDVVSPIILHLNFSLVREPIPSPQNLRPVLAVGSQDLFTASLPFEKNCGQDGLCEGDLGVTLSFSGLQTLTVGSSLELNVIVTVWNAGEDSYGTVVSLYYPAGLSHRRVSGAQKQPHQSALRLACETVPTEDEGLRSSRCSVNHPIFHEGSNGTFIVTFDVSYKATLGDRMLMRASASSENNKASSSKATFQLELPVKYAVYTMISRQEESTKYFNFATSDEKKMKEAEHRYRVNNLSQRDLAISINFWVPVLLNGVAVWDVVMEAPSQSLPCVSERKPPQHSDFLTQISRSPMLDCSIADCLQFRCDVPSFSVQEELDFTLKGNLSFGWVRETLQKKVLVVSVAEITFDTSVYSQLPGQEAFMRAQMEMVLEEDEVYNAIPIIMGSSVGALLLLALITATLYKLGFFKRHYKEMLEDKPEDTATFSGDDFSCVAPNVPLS
T1 sequence (P05107 23-769, chain 2 of 2): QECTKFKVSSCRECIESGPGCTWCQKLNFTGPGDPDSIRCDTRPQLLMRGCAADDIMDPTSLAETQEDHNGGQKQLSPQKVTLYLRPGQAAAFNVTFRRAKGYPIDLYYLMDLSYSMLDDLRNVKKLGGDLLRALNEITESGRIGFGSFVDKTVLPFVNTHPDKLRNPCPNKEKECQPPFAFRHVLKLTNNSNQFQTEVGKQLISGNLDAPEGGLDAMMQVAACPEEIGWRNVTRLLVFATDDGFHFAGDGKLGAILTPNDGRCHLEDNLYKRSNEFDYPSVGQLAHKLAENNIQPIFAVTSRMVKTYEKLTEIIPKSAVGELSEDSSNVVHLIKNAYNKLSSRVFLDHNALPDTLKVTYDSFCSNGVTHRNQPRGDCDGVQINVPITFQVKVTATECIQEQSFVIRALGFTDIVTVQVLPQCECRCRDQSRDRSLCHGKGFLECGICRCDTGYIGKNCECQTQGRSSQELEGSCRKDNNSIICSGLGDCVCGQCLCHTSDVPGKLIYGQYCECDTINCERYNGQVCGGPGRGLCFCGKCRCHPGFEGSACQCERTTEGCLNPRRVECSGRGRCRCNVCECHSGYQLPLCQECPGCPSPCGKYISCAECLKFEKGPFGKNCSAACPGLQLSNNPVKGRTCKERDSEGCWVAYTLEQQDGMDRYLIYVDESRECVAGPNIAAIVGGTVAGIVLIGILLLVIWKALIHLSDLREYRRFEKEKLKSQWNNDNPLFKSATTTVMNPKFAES

B1: Exemplified Antibody 1 (antibody, human IgG4 S228P, kappa, F234A L235A, V domains shown)
VH: QVQLVQSGAEVKKPGASVKVSCKASGYTFTDYNMHWVRQAPGQGLEWMGYIYPYNGDTGYNQNFKSRVTMTRDTSTSTVYMELSSLRSEDTAVYYCARGLIYYGYLNVAMDSWGQGTLVTVSS
VL: DIQMTQSPSSLSASVGDRVTITCRASQSIGTRIHWYQQKPGKAPKLLIYFASESISGVPSRFSGSGSGTDFTLTISSLQPEDFATYYCQQSKIWPTTFGGGTKLEIKR
notes: Humanized antibody, full LC (kappa) and HC (IgG4)
One may read the Kd as the free concentration of one partner at which half of the binding sites on the other are occupied at equilibrium, for simple one-to-one binding. Higher therefore signals lower affinity. Turning to B1, the figures for the Kd in experiment [1] and in experiment [2] were 0.436 nM and 1.45 nM, respectively.

B2: Exemplified Antibody 3 (antibody, human IgG4 S228P, kappa, F234A L235A, V domains shown)
VH: QVQLVQSGAEVKKPGASVKVSCKASGYTFTDYNMHWVRQAPGQGLEWMGYIYPYSGDTGYNQNFKSRVTMTRDTSTSTVYMELSSLRSEDTAVYYCARGLIYYGYLNVAMDSWGQGTLVTVSS
VL: DIQMTQSPSSLSASVGDRVTITCRASQSIGTRIHWYQQKPGKAPKLLIYFASESISGVPSRFSGSGSGTDFTLTISSLQPEDFATYYCQQSKIGPTTFGGGTKLEIKR
notes: as for B1
Take B2: the Kd came out at 0.304 nM in experiment [1] and 0.677 nM in experiment [2].

B3: Exemplified Antibody 4 (antibody, human IgG4 S228P, kappa, F234A L235A, V domains shown)
VH: QVQLVQSGAEVKKPGASVKVSCKASGYTFYDYNMHWVRQAPGQGLEWMGYIYPYNGDTGYNQNFKSRVTMTRDTSTSTVYMELSSLRSEDTAVYYCARGLIHYGYLNVAMDSWGQGTLVTVSS
VL: DIQMTQSPSSLSASVGDRVTITCRASRSIGTRIHWYQQKPGKAPKLLIYFASGSISGVPSRFSGSGSGTDFTLTISSLQPEDFATYYCQQSKIFPTTFGGGTKLEIKR
notes: as for B1
As to B3, the figures for the equilibrium dissociation constant (Kd) in experiment [1] and in experiment [2] were 0.333 nM and 0.247 nM, respectively.

B4: Exemplified Antibody 5 (antibody, human IgG4 S228P, kappa, F234A L235A, V domains shown)
VH: QVQLVQSGAEVKKPGASVKVSCKASGYTFTDYNMHWVRQAPGQGLEWMGYIYPYSGDTGYNQNFKSRVTMTRDTSTSTVYMELSSLRSEDTAVYYCARGLIYYGYLNVAMDSWGQGTLVTVSS
VL: DIQMTQSPSSLSASVGDRVTITCRASESIGTRIHWYQQKPGKAPKLLIYFASESISGVPSRFSGSGSGTDFTLTISSLQPEDFATYYCQQSKIWPTTFGGGTKLEIKR
notes: as for B1
Turning to B4, the results for the Kd in experiment [1] and in experiment [2] were 0.344 nM and 1.18 nM, respectively.

B5: Exemplified Antibody 2 (antibody, human IgG4 S228P, kappa, F234A L235A, V domains shown)
VH: QVQLVQSGAEVKKPGASVKVSCKASGYTFGDYNMHWVRQAPGQGLEWMGYIYPYNGDTGYNQNFKSRVTMTRDTSTSTVYMELSSLRSEDTAVYYCARGLVHYGYLNVAMDSWGQGTLVTVSS
VL: DIQMTQSPSSLSASVGDRVTITCRASRSIGTRIHWYQQKPGKAPKLLIYFASGSISGVPSRFSGSGSGTDFTLTISSLQPEDFATYYCQQSKIFPTTFGGGTKLEIKR
notes: as for B1
Turning to B5, the Kd was found to be 0.303 nM in experiment [1] and 0.133 nM in experiment [2].
